This note sets out measurements from paper PMC3192050, “Structural Basis for Specific Binding of Human MPP8 Chromodomain to Histone H3 Methylated at Lysine 9” (PLoS ONE, 2011).

One data set concerns the target T1, hMPP8 chromodomain (Homo sapiens, UniProt Q99549).
T1 construct: The chromodomain of human MPP8 (residue 56–116) was inserted into a pET28a-MHL vector; His-tag (cleaved yes); made in house; host or cells: E. coli BL21 (DE3) Codon plus RIL
T1 sequence (Q99549 56-116): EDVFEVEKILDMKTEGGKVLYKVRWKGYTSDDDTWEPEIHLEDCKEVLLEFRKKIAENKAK
Description: Surface plasmon resonance (SPR) binding of histone peptides to hMPP8 chromodomain. As to conditions: BIAcore3000, 14°C, synthetic peptide residues 19 to 33, 150 mM NaCl, 20 mM Tris, pH 8.0, 1 mM DTT, Fig. S1F right panel. Background: In SPR one partner is held on a chip, and binding of the other changes the refractive index at the surface.

Data set [1] deals with hMpp8 chromodomain mutant, Lys100 mutated to proline. The data set can be described thus: Histone H3K27 peptide pulldown, hMPP8 chromodomain mutant with Lys100 mutated to proline. Type of data set: binding, human. The following applies: Fig. S1B. From the text: (§1) It is noteworthy that the sequence motif of H3K27 is similar to H3K9 tail (KAARK^27S versus QTARK^9S). However, methylated histone H3K27 cannot interact with hMPP8 chromodomain. To explain why hMPP8 specifically recognizes methylated H3K9, we built a mutant model that hMPP8 binds to methylated H3K27. We mutated residues Gln5 and Thr6 of the QTARK^9S motif to KA to generate a motif of KAARK^9S, which shared the same amino sequence around the K27 site in histone H3. […] To further validate the hypothesis, hMpp8 chromodomain mutants were designed to rescue the binding ability to H3K27me3. Based on our structures, residues Lys100, Glu101 and Val102 were mutated to proline, respectively, to generate enough space where the side chain of Lys5 can insert.
(§2) Supplementary file pone.0025104.s001.tif: Figure S1 hMPP8 specifically recognizes methylated H3K9 rather than H3K27. (A) A mutant structure model for hMPP8 binds to KAARK(me3)S histone motif. Gln5 and Thr6 of the QTARK^9S motif were mutated to KA in this model. (B) Histone H3K27 peptide pulldowns with proteins of wild type hMpp8 chromodomain and indicated mutants, respectively. […] Molecular mass was measured by size exclusion. (F) Binding affinity of hMPP8 chromodomain to H3K4me3 (left panel, measured by ITC method) and H3K27me3 peptide (right panel, measured by SPR method). […]

The test system of data set [2] is hMpp8 chromodomain mutant, Glu101 mutated to proline. Description: Histone H3K27 peptide pulldown, hMPP8 chromodomain mutant with Glu101 mutated to proline. In kind it is binding, human. As to conditions: Fig. S1B.
Text: as §1, §2

Data set [3] concerns the target human MPP8 (M-phase phosphoprotein 8) chromodomain (human) (UniProt Q99549). Description: SEC; gel filtration of hMPP8 chromodomain; column buffer 20 mM Tris (pH 8.0), 400 mM NaCl.
Data set [4] shares this target. Description: SEC; size exclusion of hMPP8 chromodomain in the presence or in the absence of H3K9me3 peptide.
Data set [5] is described as follows: Size exclusion chromatography, oligomerization state in solution. Type of data set: physicochemical. As to conditions: 20 mM Tris (pH 8.0), 400 mM NaCl, Fig. 1D. The text has this:
Figure 1 Overall structure of hMPP8 chromodomain. (A) Sequence alignment of chromodomains of human MPP8, Drosophila HP1 and Drosophila Polycomb. Secondary structural elements (arrows for β strands and rectangles for α helices) are indicated, η represent 3_10 helix. Methylated H3K9 binding residues are marked by stars. Residues involved in dimerization of human Mpp8 and Drosophila Polycomb are marked by diamonds and triangles, respectively. The alignment was created with Espript (http://espript.ibcp.fr/Espript/Espript). (B) Cartoon representation of the crystal structure of hMPP8 chromodomain. The two subunits of the homodimer are colored in cyan and green, respectively, and the secondary structure regions in both proteins are marked. (C) Interactions between the two subunits of the hMPP8 chromodomain homodimer. The dimer interface is formed by strand β2 through an antiparallel arrangement. (D) Gel filtration of hMPP8 chromodomain (left panel). The column buffer was 20 mM Tris (pH 8.0), 400 mM NaCl. The molecular weight of hMPP8 chromodomain monomer was measured using tricine-SDS-PAGE (right panel). TEXT PRINTED IN THE PICTURE: (D) no label printed: 100.09 ml (13.6 kDa)
To determine the oligomerization state of hMPP8 chromodomain in solution, size exclusion experiment was performed. […] The molecular weight of hMPP8 chromodomain monomer is about 8.0 kD. […]
Background: SEC sorts molecules by how far they enter the pores of the column.

As for “H3K27me3: synthetic H3K27me3 (residues 19 to 33) peptide (QLATKAARKSAPATG; K27 trimethylation; UniProt P68431 20-34, looked up, fragment)”, the “binding (SPR)” value with hMPP8 chromodomain is given as “does not exhibit detectable binding”. The “binding in peptide pulldown” value in data set [1] and in data set [2] was “able to bind H3K27me3 peptide weakly” throughout.
With “human MPP8 (M-phase phosphoprotein 8) chromodomain (from UniProt Q99549 56-116) (domain or fragment)”, the stoichiometry N in data set [3] and in data set [4] was 2 each time.

B1: hMPP8 chromodomain: recombinant chromodomain of human MPP8 (residue 56–116), expressed in BL21 (DE3) Codon plus RIL (protein, UniProt Q99549 56-116, looked up, fragment)
chain: T1 sequence (Q99549 56-116)
modifications: chromodomain
notes: recombinant chromodomain of human MPP8 (residue 56–116), expressed in BL21 (DE3) Codon plus RIL
As to B1, in data set [5] (free form), the “oligomerization state in solution” value is on record as “homodimer”. Further, in data set [5] (monomer about 8.0 kD), the “apparent molecular weight in solution” value is on record as 13.6 kD.

As a reminder, the stoichiometry N is a count of units in the complex or per binding partner.
